Experimental data published in patent US20230183319A1 (published 2023).

B2: BMP9 (ligand)
chain: SAGAGSHCQKTSLRVNFEDIGWDSWIIAPKEYEAYECKGGCFFPLADDVTPTKHAIVQTLVHLKFPTKVGKACCVPTKLSPISVLYKDDMGVPTLKYHYEGMSVAECGCR
B3: GDF11 (ligand)
chain: NLGLDCDEHSSESRCCRYPLTVDFEAFGWDWIIAPKRYKANYCSGQCEYMFMQKYPHTHLVQQANPRGSAGPCCTPTKMSPINMLYFNDKQQIIYGKIPGMVVDRCGCS
B5: BMP10 (ligand)
chain: NAKGNYCKRTPLYIDFKEIGWDSWIIAPPGYEAYECRGVCNYPLAEHLTPTKHAIIQALVHLKNSQKASKACCVPTKLEPISILYLDKGVVTYKFKYEGMAVSECGCR

Experiments:
K74A = assay: SPR; 37C
L79K / F82K = assay: SPR; 37C
K55A / F82I = assay: SPR; 37C
Q98R = assay: SPR; 25C
Q98V = assay: SPR; 25C
Q98I = assay: SPR; 25C
Q98A = assay: SPR; 25C
Q98K = assay: SPR; 25C
L38Q = assay: SPR; 25C
N35F = assay: SPR; 25C
L38R = assay: SPR; 25C
N35Q = assay: SPR; 25C
Q98L = assay: SPR; 25C
L38D = assay: SPR; 25C
activin B = target: T1, activin B (UniProt P09529 293-407); assay: SPR; 37C
T1 chain: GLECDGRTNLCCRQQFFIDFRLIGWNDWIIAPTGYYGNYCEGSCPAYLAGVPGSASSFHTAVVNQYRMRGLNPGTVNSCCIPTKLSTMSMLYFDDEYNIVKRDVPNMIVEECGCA

GDF11 = target: B3; assay: SPR; 37C
activin A = target: T2, activin A (UniProt P08476 311-426); assay: SPR; 37C
T2 chain: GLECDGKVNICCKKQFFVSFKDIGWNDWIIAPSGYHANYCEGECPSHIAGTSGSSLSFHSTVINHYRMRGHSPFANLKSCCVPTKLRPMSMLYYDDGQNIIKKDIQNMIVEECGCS

GDF8 = GDF8 (UniProt O14793 267-375); assay: SPR; 37C
BMP6 = target: T3, BMP6 (UniProt P22004 382-513); assay: SPR; 37 C
T3 chain: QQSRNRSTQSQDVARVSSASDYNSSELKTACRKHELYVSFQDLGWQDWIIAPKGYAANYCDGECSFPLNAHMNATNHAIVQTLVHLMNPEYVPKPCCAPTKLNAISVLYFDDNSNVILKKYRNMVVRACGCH

BMP9 = target: B2; assay: SPR; 37 C
BMP10 = target: B5; assay: SPR; 37 C

GDF8, sequence (O14793 267-375): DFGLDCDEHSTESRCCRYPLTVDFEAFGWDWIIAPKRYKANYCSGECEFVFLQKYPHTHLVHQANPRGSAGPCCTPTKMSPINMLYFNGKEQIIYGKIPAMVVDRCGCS

B1: Activin A (ligand)
chain: GLECDGKVNICCKKQFFVSFKDIGWNDWIIAPSGYHANYCEGECPSHIAGTSGSSLSFHSTVINHYRMRGHSPFANLKSCCVPTKLRPMSMLYYDDGQNIIKKDIQNMIVEECGCS
K74A
  Kd: 0.034 nM
L79K / F82K
  Kd: 0.64 nM
K55A / F82I
  Kd: 0.047 nM
Q98R
  Kd: 0.3 nM
Q98V
  Kd: 0.16 nM
Q98I
  Kd: 0.157 nM
Q98A
  Kd: 0.155 nM
Q98K
  Kd: 0.145 nM
L38Q
  Kd: 0.2 nM
N35F
  Kd: 0.29 nM
L38R
  Kd: 0.23 nM
N35Q
  Kd: 0.32 nM
Q98L
  Kd: 0.22 nM
L38D
  Kd: 0.23 nM

## B2
K74A
  Kd: 0.36 nM
K55A / F82I
  Kd: 0.134 nM
Q98R
  Kd: 0.074 nM
Q98V
  Kd: 0.047 nM
Q98I
  Kd: 0.059 nM
Q98A
  Kd: 0.043 nM
Q98K
  Kd: 0.069 nM
L38Q
  Kd: 0.033 nM
L38R
  Kd: 0.05 nM
Q98L
  Kd: 0.071 nM
L38D
  Kd: 0.063 nM

## B3
K74A
  Kd: 0.43 nM
L79K / F82K
  Kd: 1.6 nM
K55A / F82I
  Kd: 0.09 nM
Q98R
  Kd: 0.02 nM
Q98V
  Kd: 0.033 nM
Q98I
  Kd: 0.049 nM
Q98A
  Kd: 0.037 nM
Q98K
  Kd: 0.037 nM
L38Q
  Kd: 0.021 nM
N35F
  Kd: 0.017 nM
L38R
  Kd: 0.007 nM
N35Q
  Kd: 0.02 nM
Q98L
  Kd: 0.043 nM
L38D
  Kd: 0.03 nM

B4: ActRIIB-G1Fc (SEQ ID NO: 519) (Fc fusion)
chain: GRGEAETRECIYYNANWELERTNQSGLERCEGEQDKRLHCYASWRNSSGTIELVKKGCWLDDFNCYDRQECVATEENPQVYFCCCEGNFCNERFTHLPEAGGPEVTYEPPPTAPTGGGTHTCPPCPAPELLGGPSVFLFPPKPKDTLMISRTPEVTCVVVDVSHEDPEVKFNWYVDGVEVHNAKTKPREEQYNSTYRVVSVLTVLHQDWLNGKEYKCKVSNKALPVPIEKTISKAKGQPREPQVYTLPPSREEMTKNQVSLTCLVKGFYPSDIAVEWESNGQPENNYKTTPPVLDSDGSFFLYSKLTVDKSRWQQGNVFSCSVMHEALHNHYTQKSLSLSPGK
Activin B
  Kd: 0.0225 nM
GDF11
  Kd: 0.00491 nM
Activin A
  Kd: 0.0135 nM
GDF8
  Kd: 0.0795 nM
BMP6
  Kd: 0.431 nM
BMP9
  Kd: 0.0831 nM
BMP10
  Kd: 0.00841 nM

## B5
K74A
  Kd: 0.033 nM
L79K / F82K
  Kd: 0.068 nM
K55A / F82I
  Kd: 0.007 nM
Q98R
  Kd: 0.32 nM
Q98V
  Kd: 0.048 nM
Q98I
  Kd: 0.21 nM
Q98A
  Kd: 0.21 nM
Q98K
  Kd: 0.068 nM
L38Q
  Kd: 0.089 nM
N35F
  Kd: 0.22 nM
L38R
  Kd: 0.11 nM
N35Q
  Kd: 0.27 nM
Q98L
  Kd: 0.065 nM
L38D
  Kd: 0.15 nM
